Measurements as given in patent US20180208675A1 (Novo Nordisk, published 2018).
Substitutions are numbered along the chain they refer to.

B1: mAb 2021 (antibody, human IgG4 S228P, kappa, V domains shown)
VH: EVQLVESGGGLVKPGGSLRLSCAASGFTFSNYAMSWVRQTPEKRLEWVATISRSGSYSYFPDSVQGRFTISRDNAKNSLYLQMNSLRAEDTAVYYCARLGGYDEGDAMDSWGQGTTVTVSS
VL: DIVMTQTPLSLSVTPGQPASISCKSSQSLLESDGKTYLNWYLQKPGQSPQLLIYLVSILDSGVPDRFSGSGSGTDFTLKISRVEAEDVGVYYCLQATHFPQTFGGGTKVEIKR
B2: Fab 0094 (Fab fragment of mAb 2007) (Fab, V domains shown)
VH: B1 VH with T40A, E42G, R44G, A49S, F60Y, Q65K
VL: B1 VL
notes: KPI-2 specific
B3: Fab 0088 (Fab fragment of mAb 2021) (Fab, V domains shown)
VH: B1 VH
VL: B1 VL
notes: free C-terminal cysteine; KPI-2 specific
B4: Fab 0095 (Fab fragment of mAb 2014) (Fab, V domains shown)
VH: B1 VH with T40A, E42G, R44G, A49S, F60Y, P61A, Q65K
VL: B1 VL with Y41L, K44R, Q47E, Q50K
notes: KPI-2 specific
B5: Fab 0094-Fab 0089 conjugate 9004 (bispecific antibody)
heavy 1: EVQLVESGGGLVKPGGSLRLSCAASGFTFSNYAMSWVRQAPGKGLEWVSTISRSGSYSYYPDSVKGRFTISRDNAKNSLYLQMNSLRAEDTAVYYCARLGGYDEGDAMDSWGQGTTVTVSSASTKGPSVFPLAPCSRSTSESTAALGCLVKDYFPEPVTVSWNSGALTSGVHTFPAVLQSSGLYSLSSVVTVPSSSLGTKTYTCNVDHKPSNTKVDKRVESKYGPPC
light 1: DIVMTQTPLSLSVTPGQPASISCKSSQSLLESDGKTYLNWYLQKPGQSPQLLIYLVSILDSGVPDRFSGSGSGTDFTLKISRVEAEDVGVYYCLQATHFPQTFGGGTKVEIKRTVAAPSVFIFPPSDEQLKSGTASVVCLLNNFYPREAKVQWKVDNALQSGNSQESVTEQDSKDSTYSLSSTLTLSKADYEKHKVYACEVTHQGLSSPVTKSFNRGEC
heavy 2: QVQLQQSGAELVKPGASVKLSCKASGYTFISYYMYWVKQRPGQGLEWIGEINPSNGDTNLNEKFKSKATLTVDKSSSTVYMQLSSLTSEDSAVYYCTRWDRFDGFVYWGQGTLVTVSAASTKGPSVFPLAPCSRSTSESTAALGCLVKDYFPEPVTVSWNSGALTSGVHTFPAVLQSSGLYSLSSVVTVPSSSLGTKTYTCNVDHKPSNTKVDKRVESKYGPPC
light 2: ETTVTQSPASLSMAIGGKVTIRCIISTNIDDDINWYQQKPGEPPKLLISEGNTLRPGVPSRFSSSGYGTDFVFTIENMLSEDVADYYCLQSDDLPYTFGGGTKLEIKRTVAAPSVFIFPPSDEQLKSGTASVVCLLNNFYPREAKVQWKVDNALQSGNSQESVTEQDSKDSTYSLSSTLTLSKADYEKHKVYACEVTHQGLSSPVTKSFNRGEC
modifications: C-terminal cysteine coupled through the bis-maleimide linker to the Fab 0094 heavy chain; C-terminal cysteine coupled through 1,16-N,N'-bis(maleimido)-4,13-diaza-7,10-dioxa-3,14-dioxohexadecane to the C-terminal cysteine of the Fab 0089 heavy chain
notes: KPI-2/KPI-3
B6: Fab 0088-Fab 0089 conjugate 9002 (bispecific antibody)
heavy 1: B5 heavy 1 with A40T, G42E, G44R, S49A, Y60F, K65Q
light 1: B5 light 1
heavy 2: B5 heavy 2
light 2: B5 light 2
modifications: C-terminal cysteine coupled through the bis-maleimide linker to the Fab 0088 heavy chain; C-terminal cysteine coupled through 1,16-N,N'-bis(maleimido)-4,13-diaza-7,10-dioxa-3,14-dioxohexadecane to the C-terminal cysteine of the Fab 0089 heavy chain
notes: KPI-2/KPI-3
B7: mAb 2F3 (antibody, V domains shown)
VH: QVQLKQSGPGLVQPSQSLSITCTVSGFSLSSYGVHWVRQSPGKGLEWLGVIWRGGSTDFNAAFMSRVSFTKDNSKSQVFFKMNSLQADDTAIYYCAKNSHGNYVGYAMDYWGQGTSVTVSS
VL: DIVMTQSQKFMSTTVGDKVSIPCKASENVGAAVAWYQQKPGQSPTLLIYSASNRYTGIPDRFTGSGSGTDFTLTIRTVQSEDLADYFCQQYTNYPTFGGGTKLEIKR
B8: mAb 2F22 (antibody, V domains shown)
VH: B7 VH with S30T, S31N, G49A, T57I, F59Y, V67L, F69I
VL: GIVMTQSQKFMSTTVGDRVSITCKASQSVGPAVAWYQQKPGQSPKLLIYSASNRYTGVPDRFTGSGSGADFTLTISNLHSEDLADYFCQQYTSYPTFGGGTKLEIKR
B9: mAb 2F45 (antibody, V domains shown)
VH: B7 VH with T21S, S30T, S31G, V37I, T57I, F59Y, V67L, F69I
VL: B8 VL with G1D, S28N, P31T, K45E, G57R, A69T, L78M, H79Q
B10: mAb 2F35 (antibody, V domains shown)
VH: EVQLQQSGAELVRPGALVKLSCKASGFNIKDYYIHWVKQRPEQGLEWIGWIDPENGNTIFDPKFQGRASITADTSSNTAYLQLSSLTSEDTAVYYCAGRWYAMDYWGQGTSVTVSS
VL: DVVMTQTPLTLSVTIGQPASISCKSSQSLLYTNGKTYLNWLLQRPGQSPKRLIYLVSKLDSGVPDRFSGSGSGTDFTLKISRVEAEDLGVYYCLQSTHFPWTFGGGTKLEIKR
B11: mAb 1F91 (antibody, V domains shown)
VH: DVQLQESGPGLVKPSQSLSLTCTVSGYSITSDYAWNWIRQFPGNKLEWMGYISYSGSTSYNPSLKSRISITRDTSKNQFFLQLNSVTTEDTATYYCARWAYDGPWGQGTLVTVSA
VL: QIVLSQSPALLSASPGEKVTMTCRASSSVSHMHWYQQKPGSSPKPWIYATSNLASGVPARFSGSGSGTSYSLTITRVEAEDAATYYCQQWSSNPFTFGSGTKLEIKR
B12: mAb 4F110 (antibody, human IgG4 S228P, kappa, V domains shown)
VH: QVQLQQSGAELVKPGASVKLSCKASGYTFISYYMYWVKQRPGQGLEWIGEINPSNGDTNLNEKFKSKATLTVDKSSSTVYMQLSSLTSEDSAVYYCTRWDRFDGFVYWGQGTLVTVSA
VL: ETTVTQSPASLSMAIGGKVTIRCIISTNIDDDINWYQQKPGEPPKLLISEGNTLRPGVPSRFSSSGYGTDFVFTIENMLSEDVADYYCLQSDDLPYTFGGGTKLEIKR
B13: Fab 0313 (Fab fragment of mAb 2000) (Fab, V domains shown)
VH: B1 VH with T40A, E42G, R44G, A49S, F60Y, P61A, Q65K
VL: B1 VL
notes: Fab of the initial grafted HzTFPI4F36; KPI-2 specific
B14: Fab 0089 (Fab fragment of mAb 4F110) (Fab, V domains shown)
VH: B12 VH
VL: B12 VL
notes: Chimeric mouse/human Fab; HC truncated after the hinge cysteine; KPI-3 specific

Molecular target: endogenous TFPI of normal human plasma (human, UniProt P10646 29-304, limits assumed)
Experiment: cell-based or functional assay

Binder	thrombin peak (nM) at 6.25 nM, FVIII-neutralised plasma, endogenous TFPI [nM]	thrombin peak (nM) at 12.5 nM, FVIII-neutralised plasma, endogenous TFPI [nM]	thrombin peak (nM) at 25.0 nM, FVIII-neutralised plasma, endogenous TFPI [nM]	thrombin peak (nM) at 50.0 nM, FVIII-neutralised plasma, endogenous TFPI [nM]	thrombin peak (nM) at 100 nM, FVIII-neutralised plasma, endogenous TFPI [nM]
B1	113	114	116	118	118
B2	35.9	45	60.2	73.9	74.1
B3	96.8	98.1	102	101	87.7
B4	74.2	81.3	84.9	85.4	84.7

Molecular target: T1, human TFPI alpha (full-length TFPIα) (human, UniProt P10646 29-304)
T1 construct: Analyte in SPR and added to plasma (2 or 20 nM) in thrombin generation assays; also called human TFPIα
Experiment: SPR (Biacore T200), Fab-Fab conjugate captured on Human Fab Binder, TFPIα in solution, 1:1 fit
Excerpt: (§1) Binding interaction analysis was obtained by Surface Plasmon Resonance in a Biacore T200 instrument. Human Fab Binder (Human Fab Capture Kit, GE Healthcare) was immobilized to a series S CM4 sensor chip (GE Healthcare) in flow-cells 1-4 at 10000 response units (RU) using the amine coupling protocol available within the Biacore T-200 control software (GE Healthcare) and the reagents provided with the Amine Coupling Kit (GE Healthcare).The relevant Fab fragment or Fab-Fab conjugate was captured in flow-cell 2, 3 or 4 at a fixed concentration. Different concentrations of TFPI were tested by diluting TFPI in the running buffer (10 mM Hepes, pH 7.4, 300 mM NaCl, 5 mM CaCl₂, 0.05% Surfactant P20, 1 mg/ml BSA). Each sample was assayed using 300 seconds of contact time followed by 600 seconds of dissociation time at 50 μl/min flow rate. A buffer blank was also assayed. The sensor surface was regenerated with 10 mM Glycine pH 2.1 with two cycles each of 30 seconds at 50 μl/min flow rate.
(§2) Biacore T200 Evaluation software was used to analyse the data. Determination of binding constants (kₒₙ, koff, KD) was obtained assuming a 1:1 interaction of TFPI and the Fab variant or Fab-Fab conjugate of interest.

Binder	Kd [nM]	koff [s⁻¹]	kon [M⁻¹ s⁻¹]
B5	0.036	0.00022	6.2e+06
B6	0.0053	3.8e-05	7.1e+06

Molecular target: T1, human TFPI alpha (full-length TFPIα)
Experiment: cell-based or functional assay

Binder	lag time (min), 200 nM mAb (2 x 100 nM), FVIII-neutralised plasma + 20 nM TFPIα [min]	thrombin peak (nM), 200 nM mAb (2 x 100 nM), FVIII-neutralised plasma + 20 nM TFPIα [nM]	ttPeak (min), 200 nM mAb (2 x 100 nM), FVIII-neutralised plasma + 20 nM TFPIα [min]
B7	5.8	20.9	14.6
B8	5.1	23.7	13.6
B9	9	–	–
B10	0	0	0
B11	0	0	0
B12	0	0	0

Molecular target: T1, human TFPI alpha (full-length TFPIα)
Experiment: SPR (Biacore T200), Fab captured on Human Fab Binder, TFPIα in solution, 1:1 fit
Excerpt: as §1, §2

Binder	Kd [nM]	koff [s⁻¹]	kon [M⁻¹ s⁻¹]
B2	4.4	0.00066	150000
B3	0.06	0.0001	1.7e+06
B4	0.78	0.003	3.9e+06
B13	42	0.0021	49000
B14	0.11	0.00057	5e+06

Molecular target: T1, human TFPI alpha (full-length TFPIα)
Experiment: cell-based or functional assay
Remark: another data set of the same source

Binder	thrombin peak (nM) at 6.25 nM, FVIII-neutralised plasma + 2 nM TFPIα [nM]	thrombin peak (nM) at 12.5 nM, FVIII-neutralised plasma + 2 nM TFPIα [nM]	thrombin peak (nM) at 25.0 nM, FVIII-neutralised plasma + 2 nM TFPIα [nM]	thrombin peak (nM) at 50.0 nM, FVIII-neutralised plasma + 2 nM TFPIα [nM]	thrombin peak (nM) at 100 nM, FVIII-neutralised plasma + 2 nM TFPIα [nM]
B1	48.9	61.7	68.4	73.4	58.6
B2	5.9	10.6	14.3	18.9	20.3
B3	38.4	64.2	69.8	67.7	48.1
B4	13.3	19.4	22.4	25.1	24.6
